Source: PMC7865074

These substances were tested against full-length (FL) NS5 protein (wt PBM) of West Nile virus (West Nile virus) (assay: split reporter (BiFC, NanoBiT); N2H split-NanoLuc in HEK-293T cells; full-length NS5 with 91 full-length human PDZ proteins (ORFs); read-out NLR; hits NLR > 1.35).

Sequence of Partitioning defective 3 homolog, PDZ domain 1 (N2H construct) (Q8TEW0 271-359): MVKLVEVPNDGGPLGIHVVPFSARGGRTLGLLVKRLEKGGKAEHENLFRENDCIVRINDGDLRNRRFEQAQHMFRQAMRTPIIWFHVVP
Sequence of Connector enhancer of kinase suppressor of ras 3, PDZ domain (N2H construct) (Q6P9H4 211-293): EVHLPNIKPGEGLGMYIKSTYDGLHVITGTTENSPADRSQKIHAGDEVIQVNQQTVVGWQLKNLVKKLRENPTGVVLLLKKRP
Sequence of Connector enhancer of kinase suppressor of ras 3, full-length protein (ORF, N2H construct) (Q6P9H4 whole entry): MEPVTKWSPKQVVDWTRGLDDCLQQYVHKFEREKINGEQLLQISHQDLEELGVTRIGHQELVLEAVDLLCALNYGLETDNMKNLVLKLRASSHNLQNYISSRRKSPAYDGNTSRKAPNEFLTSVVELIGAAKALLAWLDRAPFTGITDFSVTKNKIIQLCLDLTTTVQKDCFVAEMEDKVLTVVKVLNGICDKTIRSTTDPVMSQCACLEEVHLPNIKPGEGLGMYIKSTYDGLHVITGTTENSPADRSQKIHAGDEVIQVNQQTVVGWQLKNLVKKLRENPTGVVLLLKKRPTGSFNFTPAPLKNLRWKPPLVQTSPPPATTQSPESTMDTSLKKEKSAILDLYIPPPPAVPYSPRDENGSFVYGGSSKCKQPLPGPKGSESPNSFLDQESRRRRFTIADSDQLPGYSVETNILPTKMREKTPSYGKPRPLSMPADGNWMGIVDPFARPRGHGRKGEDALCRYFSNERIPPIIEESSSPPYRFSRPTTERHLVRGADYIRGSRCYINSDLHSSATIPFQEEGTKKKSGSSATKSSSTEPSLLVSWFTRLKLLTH
Sequence of Protein scribble homolog, PDZ domain 1 (N2H construct) (Q14160 728-815): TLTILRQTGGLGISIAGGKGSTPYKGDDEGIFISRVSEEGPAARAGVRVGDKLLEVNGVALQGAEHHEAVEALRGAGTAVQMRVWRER
Sequence of Microtubule-associated serine/threonine-protein kinase 1, PDZ domain (N2H construct) (Q9Y2H9 967-1055): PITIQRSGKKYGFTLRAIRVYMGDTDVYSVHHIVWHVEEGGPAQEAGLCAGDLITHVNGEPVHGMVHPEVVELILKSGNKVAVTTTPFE
Sequence of FERM and PDZ domain-containing protein 4, PDZ domain (N2H construct) (Q14CM0 78-155): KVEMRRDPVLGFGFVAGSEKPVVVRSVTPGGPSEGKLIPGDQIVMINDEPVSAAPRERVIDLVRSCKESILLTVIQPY
Sequence of Microtubule-associated serine/threonine-protein kinase 2, PDZ domain (N2H construct) (Q6P0Q8 1104-1192): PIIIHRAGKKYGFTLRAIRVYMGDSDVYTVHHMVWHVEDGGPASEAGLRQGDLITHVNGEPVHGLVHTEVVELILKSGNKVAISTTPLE
Sequence of Serine protease HTRA1, PDZ domain (N2H construct) (Q92743 365-467): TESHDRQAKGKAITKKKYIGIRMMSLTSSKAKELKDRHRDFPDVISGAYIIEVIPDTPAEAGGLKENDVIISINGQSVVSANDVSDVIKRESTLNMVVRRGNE
Sequence of Protein scribble homolog, PDZ domain 4 (N2H construct) (Q14160 1100-1194): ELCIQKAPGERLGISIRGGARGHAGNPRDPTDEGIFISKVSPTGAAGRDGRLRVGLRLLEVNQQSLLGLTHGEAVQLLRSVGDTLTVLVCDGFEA

Substance	NLR
Connector enhancer of kinase suppressor of ras 3, full-length protein (ORF, N2H construct) (from UniProt Q6P9H4 1-555) (natural protein)	1.91
Rho GTPase-activating protein 21, full-length protein (ORF, N2H construct) (from UniProt Q5T5U3 1-1958) (natural protein)	4.4
SH3 and multiple ankyrin repeat domains protein 2, full-length protein (ORF, N2H construct) (from UniProt Q9UPX8 1-1849) (natural protein)	4.38

The substances below were run against biotinylated WNV NS5 PBM peptide (West Nile virus) (assay: holdup assay (automated high-throughput chromatography); biotinylated NS5 PBM peptide as bait against 259 human PDZ domains expressed in E. coli; read-out binding intensity (BI), mean of replicates; BI threshold 0.2 for a significant interaction).

Substance	BI (holdup binding intensity)
Golgi reassembly-stacking protein 2, PDZ domain (holdup construct) (domain or fragment)	< 0.15

Target: full-length (FL) NS5 protein (wt PBM) of West Nile virus (West Nile virus)
Experiment: split reporter (BiFC, NanoBiT); N2H split-NanoLuc in HEK-293T cells; full-length NS5 with 91 full-length human PDZ proteins (ORFs); read-out NLR; hits NLR > 1.35
Remark: another data set of the same source

Substance	NLR
Rho GTPase-activating protein 21, full-length protein (ORF, N2H construct) (from UniProt Q5T5U3 1-1958) (natural protein)	4.41

Each substance was assayed against full-length (FL) NS5 protein (wt PBM) of West Nile virus (West Nile virus) (assay: split reporter (BiFC, NanoBiT); N2H split-NanoLuc in HEK-293T cells; full-length NS5 with 257 single PDZ domains; read-out NLR with NS5 minus NLR with NS5ΔPBM, three experiments; hits > 0.25).

Substance	NLR(NS5) - NLR(NS5ΔPBM)
Connector enhancer of kinase suppressor of ras 3, PDZ domain (N2H construct) (from UniProt Q6P9H4 211-293) (domain or fragment)	6.27
FERM and PDZ domain-containing protein 4, PDZ domain (N2H construct) (from UniProt Q14CM0 78-155) (domain or fragment)	< 0.25
Golgi reassembly-stacking protein 2, PDZ domain (N2H construct) (domain or fragment)	1.32
Microtubule-associated serine/threonine-protein kinase 1, PDZ domain (N2H construct) (from UniProt Q9Y2H9 967-1055) (domain or fragment)	< 0.25
Microtubule-associated serine/threonine-protein kinase 2, PDZ domain (N2H construct) (from UniProt Q6P0Q8 1104-1192) (domain or fragment)	0.87
Partitioning defective 3 homolog, PDZ domain 1 (N2H construct) (from UniProt Q8TEW0 271-359) (domain or fragment)	1.24
Protein scribble homolog, PDZ domain 1 (N2H construct) (from UniProt Q14160 728-815) (domain or fragment)	0.76
Protein scribble homolog, PDZ domain 4 (N2H construct) (from UniProt Q14160 1100-1194) (domain or fragment)	0.56
Serine protease HTRA1, PDZ domain (N2H construct) (from UniProt Q92743 365-467) (domain or fragment)	< 0.25
